Test results published in PMC6749330, “Novel Peptide NIRF Optical Surgical Navigation Agents for HNSCC” (Molecules, 2019).
Where a SMILES comes first, the peptide text is derived from it. The star is where a group is joined. IRDye800CW = CC1(C)C(/C=C/C2=C(Oc3ccc(S(=O)(=O)O)cc3)C(=C/C=C3/N(CCCCS(=O)(=O)O)c4ccc(S(=O)(=O)O)cc4C3(C)C)/CCC2)=[N+](CCCCCC(=O)*)c2ccc(S(=O)(=O)[O-])cc21

Experiments:
[1] = test system: Cal 27 cells; test: Fluorescence microscopy assay on Cal 27 cells; format: cell-based, Human; conditions: 10 μM, 1 h and 24 h incubations, 37 °C, 800 nm emission
Procedure: Fluorescence microscopy assays. Cal 27 cells were seeded at 70,000/well in duplicate on eight-well chamber slides and allowed to attach overnight. Cell culture medium was replaced with 200 μL medium containing 10 μM peptides. Cells were incubated at 37 °C for 1–24 h followed by washing four times with 300 μL of HEPES buffer (25 mM HEPES 150 mM NaCl at pH 7.4) and once with the buffer containing 1 μg/mL DAPI. The chamber slide scaffold was then removed. Each chamber was then covered by a drop of aqua-poly mount and a coverslip, and sealed with clear nail polish. Cells were imaged with an Olympus IX81 microscope using an 800 nm emission filter set for IRDye800 conjugates and 461 nm for DAPI. Images were captured at 800 nm (red) for 5 s and at 461 nm (blue) with the automatic settings, at 200×. […]
the measured fluorescence.
The ratio of uptake at 2 h drops to about 13. Note:
Figure 2 data are normalized to fHN-1-IR800 that was run adjacent to each of the hybrid-peptides. f-HN1- […]
vertical scale magnitude of 4IphfHN17-IR800 between Figure 2 at ~4.5 and Figure S3 at ~13.
Figure S4.Fluorescence microscopy of 1 h and 24 h incubations of 10 µM IR800-labeled hybrid-peptides in […]
Cal 27 cells. […] HN1-IR800, HNJ-
Figure S5. Blood clearance of hybrid-peptide molecules from normal mice as described in Materials and Methods. […]

[2] = In vitro serum stability; conditions: nu/nu, mouse
[3] = HPLC Rt as measure of relative lipophilicity; conditions: chromatographic, C18 RP (XBridge 150 × 4.6 mm, 3.5 μm), water/ACN 0.1% TFA, 20 to 50% ACN up to 10 min, 50 to 70% from 10 to 30 min, 1 mL/min, NIRF detection
[4] = test system: FBS (fetal bovine serum) proteins; test: FBS protein binding assay; conditions: 25 μM in 100% FBS, room temperature 30 s, Amicon 10 K cutoff, 12,000 g 15 min, fluorescence, p < 0.05
Procedure: FBS protein binding assay. […] The concentration was chosen as the maximum expected in blood from an intravenous imaging dose of 40 nmol in a 20 g mouse, with a blood factor of 0.078 [40, 41]. Solutions (300 μL) were then loaded into an Amicon unit (0.5 mL, 10 K cutoff) and centrifuged at 12,000× g for 15 min [28]. Samples from the filtrate (50 μL), residual (5 μL), and original solution (5 μL) were loaded in duplicate into black wall 96-well plates containing 50 (for filtrate) or 95 (for residual and original) μL of PBS with 0.2% BSA. For an additional wash, 300 μL of PBS was then added into the Amicon unit. The unit was centrifuged as above. The same amounts of each of the parts were loaded into wells. Fluorescence intensity for each fraction was calculated by fraction volume × fluorescent unit/μL. Single factor ANOVA was used to analyze the data with p < 0.05 considered significant.

| SMILES | Uptake in Cal 27 cells by fluorescence microscopy [1] | half-life at 6.4 μM [2] | HPLC Rt (relative lipophilicity) [3] | peptide bound to FBS proteins [4] |
| --- | --- | --- | --- | --- |
| CC1(C)C(/C=C/C2=C(Oc3ccc(S(=O)(=O)O)cc3)C(=C/C=C3/N(CCCCS(=O)(=O)O)c4ccc(S(=O)(=O)[O-])cc4C3(C)C)/CCC2)=[N+](CCCCCC(=O)O)c2ccc(S(=O)(=O)O)cc21 [IR800-COOH] | not observably taken up |  |  |  |
| CC[C@H](C)[C@H](NC(=O)[C@H](CC(N)=O)NC(=O)[C@H](CC(C)C)NC(=O)[C@@H]1CCCN1C(=O)[C@H](CO)NC(=O)[C@@H](N)[C@@H](C)O)C(=O)N[C@@H](Cc1c[nH]cn1)C(=O)N[C@@H](CC(N)=O)C(=O)NCC(=O)N[C@@H](CCC(N)=O)C(=O)N[C@@H](CCCCNC(=O)CCCCC[N+]1=C(/C=C/C2=C(Oc3ccc(S(=O)(=O)O)cc3)C(=C/C=C3/N(CCCCS(=O)(=O)O)c4ccc(S(=O)(=O)O)cc4C3(C)C)/CCC2)C(C)(C)c2cc(S(=O)(=O)[O-])ccc21)C(=O)N[C@@H](CC(C)C)C(N)=O [HN1-IR800] (H-TSPLNIHNGQK(IRDye800CW)L-NH2) |  | 50.4 min | 7.31 min | ~52% |
